Laboratory results published in doi:10.1101/2023.10.30.564768, “The LexA-RecA* structure reveals a lock-and-key mechanism for SOS activation” (bioRxiv, 2023).
Substitutions are numbered along the chain they refer to. Numbers in names are those of the source.

Legend:
[1] = molecular target: T1, His-RecA WT, activated as RecA* (nucleoprotein filament on ssDNA with ATPγS) (E. coli, UniProt P0A7G6 1-353); assay: fluorescence polarisation; competition, fluorescence anisotropy; unlabeled LexA K156A or QM (140 nM to 18.3 µM) spiked into pre-formed RecA* alongside LexA Q161δ; three-parameter dose-response fit; conditions: both partners purified
T1 construct: RecA, E. coli; source: E. coli ΔrecA BLR(DE3), purified (cobalt resin, ammonium sulfate, heparin); not shown: poly-His, N-terminal, kept
T1 sequence (looked up): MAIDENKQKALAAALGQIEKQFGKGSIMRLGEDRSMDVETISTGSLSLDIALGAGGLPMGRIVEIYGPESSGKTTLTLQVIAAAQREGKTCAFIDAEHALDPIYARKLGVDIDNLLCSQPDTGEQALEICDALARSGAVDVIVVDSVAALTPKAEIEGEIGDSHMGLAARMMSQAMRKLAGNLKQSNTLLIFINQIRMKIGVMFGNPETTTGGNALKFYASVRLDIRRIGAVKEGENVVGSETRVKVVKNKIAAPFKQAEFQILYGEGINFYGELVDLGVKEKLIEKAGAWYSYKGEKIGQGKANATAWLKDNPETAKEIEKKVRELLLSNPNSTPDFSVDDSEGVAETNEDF

[2] = molecular target: the molecule itself; assay: cryo-EM structure; RecA* pre-formed from 5 µM His-RecA WT and 1 µM GGT 90-mer ssDNA in 70 mM Tris-HCl pH 7.5, 150 mM NaCl, 1 mM MgCl2, 2 mM TCEP, 0.25 mM ATPγS, 20 min; LexA K156A added to 25 µM, 30 min, room temperature

B1: His-LexA K156A (natural protein, E. coli, UniProt P0A7C2 1-202, looked up)
chain: MKALTARQQEVFDLIRDHISQTGMPPTRAEIAQRLGFRSPNAAEEHLKALARKGVIEIVSGASRGIRLLQEEEEGLPLVGRVAAGEPLLAQQHIEGHYQVDPSLFKPNADFLLRVSGMSMKDIGIMDGDLLAVHKTQDVRNGQVVVARIDDEVTVARLKKQGNKVELLPENSEFKPIVVDLRQQSFTIEGLAVGVIRNGDWL
notes: LexA repressor, E. coli; source: E. coli BL21(DE3), purified (cobalt resin, heparin)
- binding result [1]: binds

B2: untagged LexA K156A (full-length, catalytically inactive) (natural protein, E. coli, UniProt P0A7C2 1-202, looked up)
chain: B1 chain
notes: LexA repressor, E. coli; Used for cryo-EM only; source: E. coli BL21(DE3), purified (cobalt resin, heparin; His-tag removed with thrombin); not shown: poly-His, N-terminal, cleaved
- binding result [2]: binds

B3: LexA quad-mutant (QM): L89P, Q92W, E152A, K156A (natural protein, E. coli, UniProt P0A7C2 1-202, looked up)
chain: B1 chain with L89P, Q92W, E152A
notes: LexA repressor, E. coli; also called LexA QM; hyperactive LexA variant; source: E. coli BL21(DE3), purified (cobalt resin, heparin)
- fold weaker binding relative to LexA K156A [1]: ~8 fold
